Consider three molecules from paper PMC7068118 (Human Molecular Genetics, 2020).

Assay in all cases: co-IP
The target in test [1] is Vps13^N1 (Vps13^GFP, conserved asparagine of VAB repeat 1 to alanine) (S. cerevisiae) (UniProt Q07878).
Test [2] addresses Vps13^N2,3,4S (Vps13^GFP, conserved asparagines of VAB repeats 2, 3 and 4 to serine) (S. cerevisiae) (UniProt Q07878).
In test [3] the target is Vps13^N3 (Vps13^GFP, conserved asparagine of VAB repeat 3 to alanine) (S. cerevisiae) (UniProt Q07878).
Test [4] deals with Vps13^N4 (Vps13^GFP, conserved asparagine of VAB repeat 4 to alanine) (S. cerevisiae, UniProt Q07878 1-3144, Vps13^N4A (N2216)).
The target of test [5] is Vps13^N4S (Vps13^GFP N2216S, models VPS13B N2993S) (S. cerevisiae, UniProt Q07878 1-3144, Vps13^N4S (N2216)).

B1: Ypt35-3HA (natural protein)
chain: MSDKISFLPPEPIQLLDEDSTEPELDIDSQQENEGPISASNSNDSTSHSNDCGATITRTRPRRSSSINANFSFQKAHVSDCTIVNGDHGTKFAVWRITVFLEPNLKAFAAKRESYKIQTYKRYSDFVRLRENLLTRIKTAKPEKLNCLQIPHLPPSVQWYSSWKYQEVNLNKDWLAKRQRGLEYFLNHIILNSSLVEMTKDILIQFLEPSKRVA
With B1, in test [1], the recovery relative to WT is 24%.

B2: Spo71-3HA (natural protein)
chain: MDSIVNVVEDDVKYAQRVTSFSSPQNANVKVFTIPRHSFTAFRLSYVSPTELSACSQVTLLGGIPKQWYADQNNQVWKLLTKISLRKVRKQSDMLRRYGYGTIYKKRVGKIPTALYLRKHFTWSYEDNTSIHNGHRLKEAEMEMKRTRSSPVQKSEYKLSLPRRCRSSSDQNFMRQELLKEKKSELSRNNSLPLIDTAQAVDIHPVLHEEDQENTNKRNKSLLSNLKRKDLGESKSISRKDYSHFDRIPSPSSARSVGETDFNYNREPSEDTLRYPDSIIEVTNRTSPAPNSILSRSGQFVNSNDLSDGFSTSNTINNVGLNANEKIFFNALQSMEKENLMLWKTSQKYGTYLDERRKSADAFQKRERGSCVDIGKLHSSHLPFINILPPWPTELTEEERIIHDRLASKHSHHIRKHVHNARNKTSCKIKDSVGTFLGMTNSLTNKATVKKRTGQILKKEKMLVMVKEAIQNKVPLPNFSENECFDTRVSERWKEYIVIARSTGRFDPPILLQFYRHRHIPEIEDISSIATKYHRNPLDFFLSRNCIVKFYSSLDKTISIQKPDKRLGGFIDESIEKKDELKHYSPIKIFILRCSSIRSSGRWYKFLLESLDRQLFTPAINLKIPLTEISIKINLNEIIFQKLIDLGKQEKDRLKICFLQRGYKIFQHPILRYFTVAILEKLKLAHYDYLIRKWDTENPVLGCALKRYDRLEWIPCDEDSLVTGIFAFCQSHLIQYRPIANRLRETKSLEGKCLKEPTPIEGFLIRLTDKYGSARTNFGKYSISTAYFFTCENLLFSMKAYRANPPLPIDSMIDDTSTEIEKEEIWKQWKKIPEVYEQQPYPLDTNDHIEWMNCQTTQSEYDSRDFYAFHCFHRRIDQILKTDNVIDLTEVKDIYQGTRTDYEADKIKYGVYKEASEIFWHRNYEIDDVSRSVINIETSNGLLLKLLATSATVAEEWVIKLKQMISYWKNKQREDTERLLKIRRSNAGLLMLNGEEETKIGENTLRWIVEHGRADEQTFNANGISLSRPLIQKGPLYQKPHKHSVFSKYYVVLISGFIVLFHCFHRSTTGFAKEVLEYAHYVTIPIDDCYLYSGTTTELDLLQRDRTFDEINYGSHALPRVYGDGWRSVEDESSRCFTLWFGTRRALSSNRLQKKGNEKQYTQDYGRQDNNIDPPSAPEADLNNSNVPSNTDKIHFTKKLGVSGKSMVFMARSRQERDLWVMSIYYELERLRRTASTSNSRNQTM
B2: the pull-down relative to WT in test [1] turned out to be 41%. The molecule also yielded a recovery relative to WT in test [2] of 42%.

B3: Mcp1-3HA (natural protein, S. cerevisiae, UniProt Q12106 1-302, looked up)
chain: MIKLHEVPPEPVDPASLPHDVNAHSPEGDGNPDKRKKIFGIPYPFSRSSCRRFLWNCQKISVLPMALYFPLHAANTLITPAVSPDSAPDDVLMMVREILPSITTKLLVAGITLHVSAGVLLRIVNNWNKPRRNRHRHLKISAEQDLSQDSIGLTGGISGYLFGLYKTFRIPPQVISGYILVPVLIYHLLIMKWVPNSISTEVDFASIKQLLSSKNRWWKWLGGLVPLAILLESGVYHIGSGLCRYFGVRKMTSRKKWSTAINLLTLVGFVSLIRLMKEDSTKLGPNQFESIFKKIRLLLHVN
In the case of B3, the recovery relative to WT in test [1] is 24%; in test [3] it was 67%; in test [4], 42%. Moreover, in test [5], the “pull-down relative to WT” value amounted to 77%.
